In publication PMC9044917 (Nature structural & molecular biology, 2022):

B1: IMPDH1(514) (enzyme)
chain: not shown
B2: IMPDH1(514)-R224P (enzyme)
chain: not shown
B3: IMPDH1(514)-V268I (enzyme)
chain: not shown
B4: IMPDH1(514)-K238E (enzyme)
chain: not shown
B5: IMPDH1(514)-D226N (enzyme)
chain: not shown
B6: IMPDH1(514)-H372P (enzyme)
chain: not shown
B7: IMPDH1(514)-N198K (enzyme)
chain: not shown
B8: IMPDH1(514)-R105W (enzyme)
chain: not shown
B9: IMPDH1(514)-T116M (enzyme)
chain: not shown
B10: IMPDH1(514)-R231P (enzyme)
chain: not shown

Biological target: the molecule itself
Assay: negative stain EM

Binding result, binds:
B1

Biological target: the molecule itself
Assay: negative stain EM
Remark: another data set of the same source

Binding result, binds:
B2, B3, B4, B5, B6, B7, B8, B9, B10
